In US20200316121A1 (published 2020):
Substitutions are numbered along the chain they refer to. One block for each binder: values may come before it.

Columns and labels:
Assay in all cases: activation reporter or marker
[1] = biological target: T1, p53 Y220C peptide on HLA-DRB1*04:01:01 (human)
T1 peptide: RNTFRHSVVVPCE

[2] = biological target: T2, p53 wild type (Y220) peptide on HLA-DRB1*04:01:01 (human)
T2 peptide: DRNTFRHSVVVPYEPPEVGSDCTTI

[3] = biological target: T3, p53 R248W peptide on HLA-A*68:01 (human)
T3 peptide: SSCMGGMNWR

B1: 4259-F6-TCR (TCR, V domains shown)
Valpha: QKEVEQNSGPLSVPEGAIASLNCTYSDRGSQSFFWYRQYSGKSPELIMFIYSNGDKEDGRFTAQLNKASQYVSLLIRDSQPSDSATYLCAWNSGGSNYKLTFGKGTLLTVNP
Vbeta: NAGVTQTPKFRVLKTGQSMTLLCAQDMNHEYMYWYRQDPGMGLRLIHYSVGEGTTAKGEVPDGYNVSRLKKQNFLLGLESAAPSQTSVYFCASSYSQAWGQPQHFGDGTRLSIL
binding result [1]: recognises | binding result [2]: no recognition

B2: 4266-TCR2 (TCR, V domains shown)
Valpha: GQNIDQPTEMTATEGAIVQINCTYQTSGFNGLFWYQQHAGEAPTFLSYNVLDGLEEKGRFSSFLSRSKGYSYLLLKELQMKDSASYLCAVYTGGFKTIFGAGTRLFVKA
Vbeta: EAGVAQSPRYKIIEKRQSVAFWCNPISGHATLYWYQQILGQGPKLLIQFQNNGVVDDSQLPKDRFSAERLKGVDSTLKIQPAKLEDSAVYLCASNLGGGSTDTQYFGPGTRLTVL
binding result [3]: recognises

Continued, values first:

binding result [3]: recognises
B3: 4266-TCR4 (TCR, V domains shown)
Valpha: GQNIDQPTEMTATEGAIVQINCTYQTSGFNGLFWYQQHAGEAPTFLSYNVLDGLEEKGRFSSFLSRSKGYSYLLLKELQMKDSASYLCAVYPGGSQGNLIFGKGTKLSVKP
Vbeta: B2 Vbeta with N95S, G98T

binding result [3]: recognises
B4: 4266-TCR3 (TCR, V domains shown)
Valpha: B3 Valpha with V90F, P92Y
Vbeta: GAGVSQSPRYKVAKRGQDVALRCDPISGHVSLFWYQQALGQGPEFLTYFQNEAQLDKSGLPSDRFFAERPEGSVSTLKIQRTQQEDSAVYLCASSFGSGSTDTQYFGPGTRLTVL
